“Also recorded” adds a separate entry of the source.
T1: IKKβ (Homo sapiens, UniProt O14920)
T1 sequence (O14920 1-756): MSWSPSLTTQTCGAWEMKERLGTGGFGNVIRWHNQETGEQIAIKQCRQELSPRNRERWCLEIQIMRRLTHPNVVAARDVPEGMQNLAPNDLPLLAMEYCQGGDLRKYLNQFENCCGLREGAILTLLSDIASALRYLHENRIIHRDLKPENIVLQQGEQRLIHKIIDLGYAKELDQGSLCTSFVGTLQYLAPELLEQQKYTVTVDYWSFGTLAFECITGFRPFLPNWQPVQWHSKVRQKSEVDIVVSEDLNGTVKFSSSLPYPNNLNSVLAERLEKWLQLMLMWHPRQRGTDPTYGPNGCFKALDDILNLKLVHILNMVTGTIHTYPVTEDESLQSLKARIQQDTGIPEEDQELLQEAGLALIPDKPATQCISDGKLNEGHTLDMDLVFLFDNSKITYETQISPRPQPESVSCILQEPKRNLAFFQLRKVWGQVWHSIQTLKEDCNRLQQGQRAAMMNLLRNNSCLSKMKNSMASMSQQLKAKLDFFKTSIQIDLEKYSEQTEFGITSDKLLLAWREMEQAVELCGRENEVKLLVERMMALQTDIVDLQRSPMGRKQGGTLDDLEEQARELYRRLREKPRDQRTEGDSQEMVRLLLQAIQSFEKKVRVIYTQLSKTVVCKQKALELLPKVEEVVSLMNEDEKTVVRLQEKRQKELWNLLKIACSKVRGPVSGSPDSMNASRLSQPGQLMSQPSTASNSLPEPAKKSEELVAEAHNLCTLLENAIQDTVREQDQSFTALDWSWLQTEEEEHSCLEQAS

T2: MUC1-CD (Homo sapiens, UniProt P15941)
T2 construct: the MUC1-cytoplasmic domain (MUC1-CD) [amino acids 1-72; GST (N, cleaved yes); made in house
T2 sequence (P15941 1184-1255): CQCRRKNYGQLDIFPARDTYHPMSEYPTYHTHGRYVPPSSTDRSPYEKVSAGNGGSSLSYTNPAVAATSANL


Key:
IKKγ = IKKγ (Homo sapiens, UniProt Q9Y6K9); assay: In vitro GST pull-down binding to IKKγ; conditions: GST pull-down with purified proteins, immunoblot
Sequence of IKKγ (Q9Y6K9 whole entry): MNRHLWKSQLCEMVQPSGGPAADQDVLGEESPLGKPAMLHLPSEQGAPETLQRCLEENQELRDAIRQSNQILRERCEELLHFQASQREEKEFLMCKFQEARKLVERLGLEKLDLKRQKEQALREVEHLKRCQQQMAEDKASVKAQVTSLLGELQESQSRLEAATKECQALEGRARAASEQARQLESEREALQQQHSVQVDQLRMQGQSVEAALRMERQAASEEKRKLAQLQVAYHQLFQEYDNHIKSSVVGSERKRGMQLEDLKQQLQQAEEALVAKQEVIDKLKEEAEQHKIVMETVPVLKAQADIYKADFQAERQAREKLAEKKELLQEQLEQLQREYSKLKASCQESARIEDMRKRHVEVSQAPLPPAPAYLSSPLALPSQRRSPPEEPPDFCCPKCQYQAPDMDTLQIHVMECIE
Procedure: FIG. 5B is a pair of photographs of immunoblots showing an interaction between MUC1-CD and IKKγ. GST- and GST-IKKγ bound to glutathione beads were incubated with purified MUC1-CD. The precipitates were immunoblotted (IB) with anti-MUC1-C antibodies. Commassie blue staining of the gel was performed to confirm that equal amounts of GST- and GST-IKKγ were used in the experiment. The molecular weights of proteins (as indicated on the left of the photographs) are expressed as kilodaltons (kDa).
(§1) FIG. 5C is a pair of photographs of immunoblots. GST- and the indicated GST-MUC1-CD fusion proteins or fragments bound to glutathione beads were incubated with purified IKKγ. The precipitates were immunoblotted (IB) with anti-IKKγ antibody. Commassie blue staining of the gel was performed to confirm that equal amounts of GST- and GST-MUC1 proteins were used in the experiment. The molecular weights of proteins (as indicated on the left of the photographs) are expressed as kilodaltons (kDa).
FIG. 5D is a pair of photographs of immunoblots. GST and the indicated GST-IKKγ fusion proteins bound to glutathione beads were incubated with MUC1-CD. The precipitates were immunoblotted (IB) with anti-MUC1-C antibody. Commassie blue staining of the gel was performed to confirm that equal amounts of GST- and GST-IKKγ proteins were used in the experiment. The molecular weights of proteins (as indicated on the left of the photographs) are expressed as kilodaltons (kDa).
as §1, with “FIG. 11B” for “FIG. 5C”, “of an immunoblot and Coomassie blue stained gel. GST” for “of immunoblots. GST-”, “proteins (MUC1-CD and MUC1-CD(mSRM))” for “proteins or fragments”, “with” for “with purified”, “with an” for “with”, “and GST-MUC1-CD” for “and GST-MUC1”
(§2) In vitro binding assays. Purified GST-MUC1-CD (glutathione s-transferase fused to the MUC1-CD polypeptide) was cleaved with thrombin to remove the GST moiety. GST, GST-IKKβ (DiDonato et al. (1997) Nature 388:548-554), GST-IKKβ (1-458), GST-IKKβ (458-756), GST-IKKγ (Prajapati et al. (2002) J. Biol. Chem. 277:24331-24339), GST-IKKγ (1-196) or GST-IKKγ (197-419) were then incubated with the MUC1-CD for 1 hour at 25° C. In other experiments, GST, GST-MUC1-CD, GST-MUC1-CD(1-45) or GST-MUC1-CD(46-72) were incubated with purified IKKβ or IKKγ. Adsorbates to glutathione-conjugated beads were analyzed by immunoblotting.

IKKβ [1] = molecular target: T1, IKKβ; assay: In vitro GST pull-down binding to IKKβ; conditions: GST pull-down with purified proteins, immunoblot
Procedure: FIG. 4B is a pair of photographs of immunoblots. Recombinantly expressed, purified GST- and GST-IKKβ proteins bound to glutathione-agarose beads were incubated with purified MUC1-CD protein. The precipitates were immunoblotted (IB) with anti-MUC1-C antibodies. Input of the GST and GST-IKKβ proteins was assessed by Coomassie blue staining. The molecular weights of proteins (as indicated on the left of the photographs) are expressed as kilodaltons (kDa).
FIG. 4C (top panel) is a schematic diagram of the amino acid sequence of (i) the MUC1-cytoplasmic domain (MUC1-CD) [amino acids 1-72; SEQ ID NO:2]; (ii) the MUC1-CD fragment [amino acids 1-45; SEQ ID NO:3]; and (iii) the MUC-CD fragment [amino acids 46-72; SEQ ID NO:4]. FIG. 4C (bottom panel) is a photograph of an immunoblot and a photograph of a Coomassie blue-stained electrophoretic gel. GST- and the indicated GST-MUC1-CD fusion proteins bound to glutathione beads were incubated with purified IKKβ. The precipitates were immunoblotted with anti-IKKβ. Input of the GST and GST-MUC1-CD fusion proteins was assessed by Coomassie blue staining. The molecular weights of proteins (as indicated on the left of the photographs) are expressed as kilodaltons (kDa).
FIG. 11A is a pair of photographs of an immunoblot and Coomassie-blue stained gel. GST and the indicated GST-MUC1-CD fusion proteins (MUC1-CD and MUC1-CD(mSRM)) bound to glutathione beads were incubated with IKKβ. The precipitates were immunoblotted (IB) with an anti-IKKβ antibody. Commassie blue staining of the gel was performed to confirm that equal amounts of GST- and GST-MUC1-CD proteins were used in the experiment. The molecular weights of proteins (as indicated on the left of the photographs) are expressed as kilodaltons (kDa).
(§3) In vitro binding assays. Purified GST-MUC1-CD (glutathione s-transferase fused to the MUC1-CD polypeptide) was cleaved with thrombin to remove the GST moiety. […] Adsorbates to glutathione-conjugated beads were analyzed by immunoblotting.

IKKβ-IKKγ complexes = IKKβ-IKKγ complexes (Homo sapiens, UniProt O14920+Q9Y6K9); assay: In vitro association of IKKβ with GST-IKKγ in absence and presence of MUC1-CD proteins; assay type: binding; conditions: purified IKKβ and GST-IKKγ, with or without added MUC1 protein
Sequence of IKKβ-IKKγ complexes (Q9Y6K9 whole entry, one chain of several): as the sequence (Q9Y6K9 whole entry) above
Procedure: FIG. 7C is a series of photographs of immunoblots. GST- or GST-IKKγ bound to glutathione beads was incubated with IKKβ in the absence and presence of MUC1-CD protein. The precipitates were immunoblotted (IB) with anti-IKKβ (upper panel). Input amounts of the various proteins were assessed by immunoblotting with the indicated antibodies (lower 3 panels). The molecular weights of proteins (as indicated on the left of the photographs) are expressed as kilodaltons (kDa).
(§4) FIG. 12 is a series of photographs of immunoblots. GST, and GST-IKKγ fusion proteins bound to glutathione beads were incubated with MUC1-CD, MUC1-CD(mSRM), or IKKβ proteins as indicated. The GST-pull down precipitates were immunoblotted (IB) with antibodies specific for IKKγ (top panel), IKKβ (middle panel), or MUC1 (bottom panel) as indicated. The molecular weights of proteins (as indicated on the left of the photographs) are expressed as kilodaltons (kDa).
as §3

IKKβ [2] = molecular target: IKKβ (Homo sapiens, UniProt O14920); assay: In vitro incubation of IKKβ and IKKγ with ATP, phospho-IKKβ-Ser-181 immunoblot; assay type: biochemical; conditions: MUC1 protein added to the reaction
Procedure: as §4, with “13” for “12”, “for (from top to bottom) phosphor-IKKβ-Ser-181 (first panel),” for “for”, “(second” for “(top”, “(third” for “(middle”, “(fourth” for “(bottom”
Target sequence in this assay (Q9Y6K9 whole entry partner, one chain of several): as the sequence (Q9Y6K9 whole entry) above

MUC1-CD = molecular target: T2, MUC1-CD; assay: In vitro GST pull-down of GST-IKKβ fragments with MUC1-CD; assay type: binding; conditions: GST-IKKβ (1-458) and GST-IKKβ (458-756) incubated with MUC1-CD
Procedure: FIG. 4D is a pair of photographs of immunoblots. GST and the indicated GST-IKKβ fusion proteins bound to glutathione beads were incubated with MUC1-CD. The precipitates were immunoblotted with anti-MUC1-C antibody. The molecular weights of proteins (as indicated on the left of the photographs) are expressed as kilodaltons (kDa).
as §2

Molecule | binding to IKKγ (IKKγ) | binding to IKKβ (IKKβ [1]) | interaction between IKKβ and IKKγ (IKKβ-IKKγ complexes) | extent of IKKβ phosphorylation on Ser-181 (IKKβ [2]) | binding of MUC1 to IKKβ fragments (MUC1-CD)
MUC1-CD(1-45): fragment consisting of amino acids 1-45 (SEQ ID NO:3) of the human MUC1 CD (CQCRRKNYGQLDIFPARDTYHPMSEYPTYHTHGRYVPPSSTDRSP; listed as Homo sapiens) | not | confers the ability to bind to IKKβ; also recorded: binds to IKKβ |  |  | 
MUC1-CD(mSRM): MUC1-CD with serine-rich motif SAGNGGSSLS mutated to AAGNGGAAAA (SEQ ID NO:14) (Mutation of the Serine rich motif from human MUC1 CD) | attenuated binding to IKKγ | no effect | substantially less effective | attenuated | 
MUC1-CD(46-72): fragment consisting of amino acids 46-72 (SEQ ID NO:4) of the human MUC1 CD (YEKVSAGNGGSSLSYTNPAVAATSANL; listed as Homo sapiens) | binds to IKKγ |  |  |  | 
IKKβ (1-458): fragment of amino acids 1-458 (SEQ ID NO:7) of human IKKβ (protein, listed as Homo sapiens, not fully specified; X: residue not identified in the source) MSWSPSLTTQTCGAWEMKERLGTGGFGNVIRWHNQETGEQIAIKQCRQELSPRNRERWCLEIQIMRRLTHPNVVAARDVPEGMXNLAPNDLPLLAMEYCQGGDLRKYLNQFENCCGLREGAILTLLSDIASALRYLHENRIIHRDLKPENIVLQQGEQRLIHKIIDLGYAKELDQGSLCTSFVGTLQYLAPELLEQQKYTVTVDYWSFGTLAFECITGFRPFLPNWQPVQWHSKVRQKSEVDIVVSEDLNGTVKFSSSLPYPNNLNSVLAERLEKWLQLMLMWHPRQRGTDPTYGPNGCFKALDDILNLKLVHILNMVTGTIHTYPVTEDESLQSLKARIQQDTGIPEEDQELLQEAGLALIPDKPATQCISDGKLNEGHTLDMDLVFLFDNSKITYETQISPRPQPESVSCILQEPKRNLAFFQLRKVWGQVWHSIQTLKEDCNRLQQGQRAAMMNL |  |  |  |  | MUC1 binds directly with the IKKβ N-terminal region

— US8129345B2, “MUC1-IκB kinase complexes and their activities” (Dana-Farber Cancer Institute, Inc., priority 2006, dated 2012)
